From US20120231014A1 come the findings set out here.

pKd: −log10 of the molar value.

Assay [1] deals with PTPσ-Fc fusion protein (recombinant mouse PTPσ extracellular domain, short isoform, fused to Fc) (mouse) (UniProt B0V2N1). Kind of assay: cell-free plate assay: PTPσ-Fc on protein A plates, increasing Ncn-AP, bound AP activity, Scatchard analysis.
Assay [2] has the same target. Put plainly: cell-free plate assay: PTPσ-Fc on protein A plates, biotinylated aggrecan detected with streptavidin-AP, hyperbolic curve fit.

The pKd is −log10 of the Kd, conventionally taken in molar units. On to “Ncn-AP fusion protein (mouse neurocan amino acids 1-963 fused to placental alkaline phosphatase) (from UniProt P55066 23-963; P05187 23-511)”, for which the negative-log Kd (pKd) in assay [1] is 7.96.

Regarding “biotinylated purified aggrecan (bovine; Sigma) (from UniProt P13608 17-2364)”, the pKd in assay [2] was 7.72.
